Consider 2 proteins from article PMC11851464, “Development of a Spectrophotometric Assay for the Cysteine Desulfurase from Staphylococcus aureus” (Antibiotics, 2025).

Substrate in the data set “purified protein”: N[C@@H](CS)C(=O)O
Kind of data set: purified protein. The format is biochemical, Staphylococcus aureus. The note with it: pyridoxal-5′-phosphate (PLP) Cys displaces Lys250 and binds PLP to form Cys-aldimine; catalytic Cys389.

Substrate in data set [1]: N[C@@H](CS)C(=O)O
Kind of data set: Michaelis–Menten kinetics, Ala-NDA assay. The format is biochemical, Bacillus subtilis. The note with it: pyridoxal-5′-phosphate (PLP).

B1: cysteine desulfurase SufS (SaSufS) (Staphylococcus aureus subsp. aureus USA300) (protein)
chain: MAEHSFDVNEVIKDFPILDQKVNGKRLAYLDSTATSQTPVQVLNVLEDYYKRYNSNVHRGVHTLGSLATDGYENARETVRRFINAKYFEEIIFTRGTTASINLVAHSYGDANVEEGDEIVVTEMEHHANIVPWQQLAKRKNATLKFIPMTADGELNIEDIKQTINDKTKIVAIAHISNVLGTINDVKTIAEIAHQHGAIISVDGAQAAPHMKLDMQEMNADFYSFSGHKMLGPTGIGVLFGKRELLQKMEPIEFGGDMIDFVSKYDATWADLPTKFEAGTPLIAQAIGLAEAIRYLERIGFDAIHKYEQELTIYAYEQMSAIEGIEIYGPPKDRRAGVITFNLQDVHPHDVATAVDTEGVAVRAGHHCAQPLMKWLNVSSTARASFYIYNTKEDVDQLINALKQTKEFFSYEF
One may read the Km as the substrate concentration at which the rate is half of its maximum. As usually defined, the kcat is the number of substrate molecules converted per active site and unit of time at saturation. Broadly, the kcat/Km is the turnover number divided by the Michaelis constant. In the case of B1, in “purified protein”, the Km came to 600 ± 170 µM, the kcat was determined as 0.0683 ± 0.00833 s⁻¹ and the kcat/Km amounted to 113 ± 45 M⁻¹ s⁻¹.

B2: cysteine desulfurase SufS (BsSufS) (Bacillus subtilis subsp. subtilis str. 168) (protein)
chain: MNITDIREQFPILHQQVNGHDLVYLDSAATSQKPRAVIETLDKYYNQYNSNVHRGVHTLGTRATDGYEGAREKVRKFINAKSMAEIIFTKGTTTSLNMVALSYARANLKPGDEVVITYMEHHANIIPWQQAVKATGATLKYIPLQEDGTISLEDVRETVTSNTKIVAVSHVSNVLGTVNPIKEMAKIAHDNGAVIVVDGAQSTPHMKIDVQDLDCDFFALSSHKMCGPTGVGVLYGKKALLENMEPAEFGGEMIDFVGLYESTWKELPWKFEAGTPIIAGAIGLGAAIDFLEEIGLDEISRHEHKLAAYALERFRQLDGVTVYGPEERAGLVTFNLDDVHPHDVATVLDAEGIAVRAGHHCAQPLMKWLDVTATARASFYLYNTEEEIDKLVEALQKTKEYFTNVF
Turning to B2, in data set [1], the Km is 440 ± 190 µM, the kcat was determined as 0.0817 ± 0.0117 s⁻¹ and the kcat/Km is 185 ± 107 M⁻¹ s⁻¹.
